From PMC4652764, “The La-related protein 1-specific domain repurposes HEAT-like repeats to directly bind a 5′TOP sequence”

Assays:
LARP1 DM15 region [1] = target: T1, LARP1 DM15 region (human, UniProt Q6PKG0 873-1023); assay: EMSA; tRNA and BSA competitors; ~500 nM when corrected for active protein; EMSA: 20 mM Tris-HCl pH 8, 150 mM NaCl, 10% glycerol, 1 mM DTT, 0.5 ug tRNA, 1 ug BSA, <2 nM RNA, 30 min on ice, native 0.5x TBE gel at 4 C; details: protein: recombinant; tags: His6-MBP removed by TEV; glycine linker remnant; label: 5'-32P (EMSA, probing)
LARP1 DM15 region [2] = target: T1, LARP1 DM15 region; assay: EMSA; EMSA: 20 mM Tris-HCl pH 8, 150 mM NaCl, 10% glycerol, 1 mM DTT, 0.5 ug tRNA, 1 ug BSA, <2 nM RNA, 30 min on ice, native 0.5x TBE gel at 4 C; details: protein: recombinant; tags: His6-MBP removed by TEV; glycine linker remnant; label: 5'-32P
LARP1 DM15 region [3] = target: T1, LARP1 DM15 region; assay: EMSA; two concentration-dependent complexes; EMSA: 20 mM Tris-HCl pH 8, 150 mM NaCl, 10% glycerol, 1 mM DTT, 0.5 ug tRNA, 1 ug BSA, <2 nM RNA, 30 min on ice, native 0.5x TBE gel at 4 C; details: protein: recombinant; tags: His6-MBP removed by TEV; glycine linker remnant; label: 5'-32P
LARP1 DM15 region [4] = target: T1, LARP1 DM15 region; assay: EMSA; up to 30 uM protein; EMSA: 20 mM Tris-HCl pH 8, 150 mM NaCl, 10% glycerol, 1 mM DTT, 0.5 ug tRNA, 1 ug BSA, <2 nM RNA, 30 min on ice, native 0.5x TBE gel at 4 C; details: protein: recombinant; tags: His6-MBP removed by TEV; glycine linker remnant; label: 5'-32P
LARP1 DM15 region [5] = target: T1, LARP1 DM15 region; assay: EMSA; no specific binding; EMSA: 20 mM Tris-HCl pH 8, 150 mM NaCl, 10% glycerol, 1 mM DTT, 0.5 ug tRNA, 1 ug BSA, <2 nM RNA, 30 min on ice, native 0.5x TBE gel at 4 C; details: protein: recombinant; tags: His6-MBP removed by TEV; glycine linker remnant; label: 5'-32P

B1: RPS6-20mer (ssRNA)
RNA: CCUCUUUUCCGUGGCGCCUC
With B1 the Kd (LARP1 DM15 region [1]) was 776 ± 26 nM.

B2: RPS6 first 11 nt (ssRNA)
RNA: CCUCUUUUCCG
B2: no binding (LARP1 DM15 region [2]).

B3: PABPC1 5'TOP 20mer (ssRNA)
RNA: CCCCUUCUCCCCGGCGGUUA
B3: no binding (LARP1 DM15 region [2]).

B4: RPS6 first 8 nt (ssRNA)
RNA: CCUCUUUU
B4: no binding (LARP1 DM15 region [2]).

B5: RPS6-42mer (ssRNA)
RNA: CCUCUUUUCCGUGGCGCCUCGGAGGCGUUCAGCUGCUUCAAG
B5: binds (LARP1 DM15 region [3]).

B6: RPS6 deltaTOP (ssRNA)
RNA: GUGGCGCCUCGGAGGCGUUCAGCUGCUUCAAG
B6: no binding (LARP1 DM15 region [4]).

B7: A16 (ssRNA)
RNA: AAAAAAAAAAAAAAAA
B7: no binding (LARP1 DM15 region [5]).

B8: U16 (ssRNA)
RNA: UUUUUUUUUUUUUUUU
B8: no binding (LARP1 DM15 region [5]).

B9: RPL13A 5'TOP 16mer (ssRNA)
RNA: CACUUCUGCCGCCCCU
B9: no binding (LARP1 DM15 region [2]).
